Results on ten molecules are retold here after patent US6407062 (ST JUDE CHILDREN S RESEARCH HOSPITAL, dated 2000).

The target in experiment [1] is T1, Hdm2 140-350 (polyhistidine-tagged, bacterial) (human, UniProt Q00987 140-350).
T1 construct: The sense primer places an ATG before residue 141, so position 140 of the construct may be Met; also called Hdm2 140-350 polypeptide; not shown: N-terminal polyhistidine tag of pET28a
The experiment in a line: immunoprecipitation and blot with bacterial Hdm2 140-350.

Experiment [2] deals with T1, Hdm2 140-350 (polyhistidine-tagged, …). The experiment in a line: FPLC affinity chromatography, ARF polypeptide coupled to Sepharose, NaCl gradient then acid.
In experiment [3] the target is T2, Hdm2 210-304 (polyhistidine-tagged, bacterial) (human, UniProt Q00987 210-304).
T2 construct: The sense primer places an ATG before residue 211; not shown: N-terminal polyhistidine tag of pET28a
T2 sequence (Q00987 210-304): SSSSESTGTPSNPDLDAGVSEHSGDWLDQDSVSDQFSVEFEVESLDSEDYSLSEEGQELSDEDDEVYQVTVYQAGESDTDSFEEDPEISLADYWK
Put plainly: FPLC affinity chromatography, NaCl gradient then acid.

The target of experiment [4] is T3, Mdm2 (Murine Double Minute 2, full-length) (mouse, UniProt P23804 1-489).
T3 construct: Full-length protein made in Sf9 cells from a baculovirus, or endogenous in NIH-3T3 cells; GenBank X58876 printed; also called wild type Mdm2; full-length Mdm2
T3 sequence (P23804 other isoform, or with tags, fused parts or gaps limits assumed): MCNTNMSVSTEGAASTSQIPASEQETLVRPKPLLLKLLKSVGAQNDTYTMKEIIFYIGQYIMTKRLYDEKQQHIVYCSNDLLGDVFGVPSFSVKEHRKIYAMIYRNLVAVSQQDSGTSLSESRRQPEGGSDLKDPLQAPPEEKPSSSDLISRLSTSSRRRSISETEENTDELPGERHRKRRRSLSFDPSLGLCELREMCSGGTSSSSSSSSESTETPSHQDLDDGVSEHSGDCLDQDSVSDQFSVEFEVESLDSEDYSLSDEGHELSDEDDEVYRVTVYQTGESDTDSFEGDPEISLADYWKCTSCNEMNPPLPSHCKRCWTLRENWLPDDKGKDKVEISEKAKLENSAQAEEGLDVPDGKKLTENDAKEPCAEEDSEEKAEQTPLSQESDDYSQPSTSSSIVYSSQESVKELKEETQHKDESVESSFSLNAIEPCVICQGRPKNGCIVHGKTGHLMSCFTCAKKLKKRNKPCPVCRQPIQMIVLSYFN
Put plainly: His-tagged syn-ARF N37 mixed with Mdm2 from Sf9 cells, immunoprecipitation with 2A10 or anti-polyhistidine and blot.

Experiment [5] has as its target T4, CDK4 (mouse, endogenous) (mouse, UniProt P30285 2-303).
T4 sequence (looked up): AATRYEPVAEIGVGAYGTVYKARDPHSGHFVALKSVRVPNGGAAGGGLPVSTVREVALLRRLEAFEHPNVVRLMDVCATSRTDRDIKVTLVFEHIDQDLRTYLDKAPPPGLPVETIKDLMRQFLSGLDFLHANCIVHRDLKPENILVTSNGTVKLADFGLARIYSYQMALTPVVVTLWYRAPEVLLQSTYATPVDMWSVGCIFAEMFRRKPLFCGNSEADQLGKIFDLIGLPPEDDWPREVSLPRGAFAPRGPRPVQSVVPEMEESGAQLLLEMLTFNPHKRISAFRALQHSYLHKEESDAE
Put plainly: p16 immunoprecipitates blotted with antiserum to CDK4.

In experiment [6] the target is endogenous wild-type p53 of mouse fibroblasts (NIH-3T3 cells, MEFs) (mouse, UniProt P02340 1-390). The experiment in a line: sequential immunoprecipitation from NIH-3T3 cells; EMSA. (In EMSA bound probe runs differently from free probe, usually more slowly.)
Sequence of endogenous wild-type p53 of mouse fibroblasts (NIH-3T3 cells, MEFs) (P02340 whole entry): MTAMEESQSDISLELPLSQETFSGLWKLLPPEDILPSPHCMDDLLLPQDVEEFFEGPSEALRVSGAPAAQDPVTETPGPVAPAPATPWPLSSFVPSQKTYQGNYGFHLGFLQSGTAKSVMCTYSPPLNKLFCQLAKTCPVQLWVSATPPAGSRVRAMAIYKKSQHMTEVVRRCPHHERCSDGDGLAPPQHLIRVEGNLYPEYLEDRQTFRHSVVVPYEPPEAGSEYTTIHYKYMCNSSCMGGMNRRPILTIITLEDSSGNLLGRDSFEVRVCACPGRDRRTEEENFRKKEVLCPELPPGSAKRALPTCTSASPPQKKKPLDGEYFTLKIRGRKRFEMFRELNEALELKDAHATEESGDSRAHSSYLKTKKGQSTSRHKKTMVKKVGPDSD
In experiment [7] the target is cyclin A (mouse, endogenous) (mouse, UniProt P51943 1-422, limits assumed). Put plainly: immunoprecipitates from cell lysates blotted with anti-ARF-p19; Sf9 baculovirus reconstruction also gave no convincing evidence.
Sequence of cyclin A (mouse, endogenous) (P51943 whole entry): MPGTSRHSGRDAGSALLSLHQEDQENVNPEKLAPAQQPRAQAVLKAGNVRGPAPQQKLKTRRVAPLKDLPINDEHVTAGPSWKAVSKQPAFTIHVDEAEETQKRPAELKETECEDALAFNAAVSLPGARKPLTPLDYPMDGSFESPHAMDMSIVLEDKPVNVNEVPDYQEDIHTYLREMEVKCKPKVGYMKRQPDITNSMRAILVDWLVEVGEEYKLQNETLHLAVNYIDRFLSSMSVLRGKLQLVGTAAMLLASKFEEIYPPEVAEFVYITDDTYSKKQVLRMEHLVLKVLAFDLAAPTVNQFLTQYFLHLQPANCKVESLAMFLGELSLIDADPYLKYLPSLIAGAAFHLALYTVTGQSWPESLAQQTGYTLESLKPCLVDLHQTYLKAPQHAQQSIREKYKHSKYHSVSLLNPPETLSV
The target of experiment [8] is cyclin D2 (mouse, endogenous) (mouse, UniProt P30280 1-289). Described as above.
Sequence of cyclin D2 (mouse, endogenous) (P30280 whole entry): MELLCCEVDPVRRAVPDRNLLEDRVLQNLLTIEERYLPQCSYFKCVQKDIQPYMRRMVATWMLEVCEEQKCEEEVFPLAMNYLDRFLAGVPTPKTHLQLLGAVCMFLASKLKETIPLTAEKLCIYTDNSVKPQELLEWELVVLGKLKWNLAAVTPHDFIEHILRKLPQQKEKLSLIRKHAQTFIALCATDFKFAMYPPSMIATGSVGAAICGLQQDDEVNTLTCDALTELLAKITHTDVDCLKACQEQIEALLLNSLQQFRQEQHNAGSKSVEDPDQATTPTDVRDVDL
Experiment [9] deals with T4, CDK4 (mouse, endogenous). The experiment is described as above.
For experiment [10], the target named is cyclin D1 (mouse, endogenous) (mouse, UniProt P25322 1-295). The description is as above.
Sequence of cyclin D1 (mouse, endogenous) (P25322 whole entry): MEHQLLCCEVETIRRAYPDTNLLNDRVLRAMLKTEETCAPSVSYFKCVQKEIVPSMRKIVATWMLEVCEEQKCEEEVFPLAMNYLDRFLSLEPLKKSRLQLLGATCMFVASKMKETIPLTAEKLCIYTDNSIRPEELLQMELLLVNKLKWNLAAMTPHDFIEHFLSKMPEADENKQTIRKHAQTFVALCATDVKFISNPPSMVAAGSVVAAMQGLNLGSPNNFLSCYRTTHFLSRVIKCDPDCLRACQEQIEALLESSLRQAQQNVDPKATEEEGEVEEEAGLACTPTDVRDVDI
Experiment [11] deals with T5, CDC2 (mouse, endogenous) (mouse, UniProt P11440 1-297).
T5 construct: also called CDK1
T5 sequence (P11440 whole entry): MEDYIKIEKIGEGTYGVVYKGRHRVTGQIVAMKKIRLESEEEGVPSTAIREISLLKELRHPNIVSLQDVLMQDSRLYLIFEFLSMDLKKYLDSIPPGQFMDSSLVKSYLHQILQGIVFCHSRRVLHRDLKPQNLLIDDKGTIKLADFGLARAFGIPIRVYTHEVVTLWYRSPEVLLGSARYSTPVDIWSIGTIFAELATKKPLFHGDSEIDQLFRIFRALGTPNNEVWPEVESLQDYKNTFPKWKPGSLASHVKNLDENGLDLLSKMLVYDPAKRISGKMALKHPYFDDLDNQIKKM
The experiment is described as above.

Experiment [12] addresses CDK6 (mouse, endogenous) (mouse, UniProt Q64261 1-326). The description is as above.
Experiment [13] concerns the target T6, Hdm2 (Human Double Minute 2, full-length, untagged) (human, UniProt Q00987 1-491).
T6 construct: GenBank M92424 printed; also called wild type Hdm2
The experiment in a line: binding assay not described further.

In experiment [14] the target is T1, Hdm2 140-350 (polyhistidine-tagged, …). Put plainly: FPLC affinity chromatography on peptide coupled to Sepharose.
The target of experiment [15] is T2, Hdm2 210-304 (polyhistidine-tagged, …). The description is as above.

T1 sequence (Q00987 140-350): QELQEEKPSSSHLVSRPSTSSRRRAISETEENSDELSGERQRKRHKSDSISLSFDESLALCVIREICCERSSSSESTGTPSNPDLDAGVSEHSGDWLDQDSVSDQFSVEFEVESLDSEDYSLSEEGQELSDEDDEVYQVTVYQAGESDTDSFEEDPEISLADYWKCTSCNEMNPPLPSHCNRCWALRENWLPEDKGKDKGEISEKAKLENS
T6 sequence (Q00987 whole entry): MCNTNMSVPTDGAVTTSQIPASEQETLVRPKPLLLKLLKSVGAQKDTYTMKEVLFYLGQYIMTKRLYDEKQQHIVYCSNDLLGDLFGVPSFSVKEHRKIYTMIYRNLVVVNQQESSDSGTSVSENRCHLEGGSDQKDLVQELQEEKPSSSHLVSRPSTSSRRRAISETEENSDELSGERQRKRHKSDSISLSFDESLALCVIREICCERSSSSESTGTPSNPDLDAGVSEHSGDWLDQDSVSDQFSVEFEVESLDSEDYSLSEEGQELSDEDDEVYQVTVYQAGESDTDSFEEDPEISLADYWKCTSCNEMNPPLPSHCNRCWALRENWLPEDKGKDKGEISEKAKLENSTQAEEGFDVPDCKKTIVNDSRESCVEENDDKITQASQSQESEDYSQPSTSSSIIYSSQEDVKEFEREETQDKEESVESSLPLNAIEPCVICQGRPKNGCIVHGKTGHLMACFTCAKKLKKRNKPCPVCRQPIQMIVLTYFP
Sequence of CDK6 (mouse, endogenous) (Q64261 whole entry): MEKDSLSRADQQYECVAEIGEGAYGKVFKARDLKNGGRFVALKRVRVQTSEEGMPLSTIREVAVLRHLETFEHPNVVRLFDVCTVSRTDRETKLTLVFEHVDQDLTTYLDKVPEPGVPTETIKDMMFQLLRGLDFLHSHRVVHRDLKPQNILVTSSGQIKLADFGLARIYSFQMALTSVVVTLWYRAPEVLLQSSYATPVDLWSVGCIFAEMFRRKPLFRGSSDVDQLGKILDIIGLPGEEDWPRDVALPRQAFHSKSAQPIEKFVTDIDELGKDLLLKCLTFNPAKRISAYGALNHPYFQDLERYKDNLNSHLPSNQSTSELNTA

B1: mouse p19^ARF Δ1-14/Δ26-37 (HA-tagged double-deletion mutant) (other)
chain: GRPLQERVFLVCALAFVNMLLRLERILRRGPHRNPGPGDDDGQRSRSSSSAQLRCRFELRGPHYLLPPGARRSAGRLPGHAGGAARVRGSAGCARCLGSPAARLGPRAGTSRHRAIFAFRWVLFVFRWVVFVYRWERRPDRRA
notes: also called ARF Δ1-14/26-37; not shown: N-terminal HA tag
Consider B1, for which the binding result in experiment [1] is “no binding”.

B2: mouse p19^ARF Δ15-25 (HA-tagged deletion mutant) (other)
chain: MGRRFLVTVRIQRAKFVRSRRPRTASCALAFVNMLLRLERILRRGPHRNPGPGDDDGQRSRSSSSAQLRCRFELRGPHYLLPPGARRSAGRLPGHAGGAARVRGSAGCARCLGSPAARLGPRAGTSRHRAIFAFRWVLFVFRWVVFVYRWERRPDRRA
notes: not shown: N-terminal HA tag of the HA-tagged ARF cDNA template
Take B2: in experiment [1], the binding result is given as “binds”.

B3: syn-ARF N37 (polyhistidine-tagged mouse ARF residues 1-37, made in bacteria) (peptide)
chain: MGRRFLVTVRIQRAGRPLQERVFLVKFVRSRRPRTAS
notes: also called Synthetic ARF N37; recombinant syn-ARF N37; not shown: N-terminal polyhistidine tag of pET28a
Regarding B3, the binding result in [2], in experiment [3] and in [4] was “binds” each time.

B4: InK4a-p16 (mouse) (other, UniProt P51480 1-168, looked up)
chain: MESAADRLARAAAQGRVHDVRALLEAGVSPNAPNSFGRTPIQVMMMGNVHVAALLLNYGADSNCEDPTTFSRPVHDAAREGFLDTLVVLHGSGARLDVRDAWGRLPLDLAQERGHQDIVRYLRSAGCSLCSAGWSLCTAGNVAQTDGHSFSSSTPRALELRGQSQEQS
notes: not used; also called p16^INK4a
B4: the binding result in [5] is on record as “binds”.

B5: ARF-p19 (mouse, full-length 169 amino acid protein) (other)
chain: MGRRFLVTVRIQRAGRPLQERVFLVKFVRSRRPRTASCALAFVNMLLRLERILRRGPHRNPGPGDDDGQRSRSSSSAQLRCRFELRGPHYLLPPGARRSAGRLPGHAGGAARVRGSAGCARCLGSPAARLGPRAGTSRHRAIFAFRWVLFVFRWVVFVYRWERRPDRRA
notes: also called p19^ARF; p19^ARF protein
For B5, the binding result is listed as “binds” in experiment [6]; “no binding” in experiment [7]; “no binding” in [8]; “no binding” in experiment [9]; “no binding” in [10]; “no binding” in experiment [11]. For the same molecule, the binding result in experiment [12] is reported as “no binding”.

B6: mouse p19^ARF Δ1-14 (HA-tagged deletion mutant) (other)
chain: GRPLQERVFLVKFVRSRRPRTASCALAFVNMLLRLERILRRGPHRNPGPGDDDGQRSRSSSSAQLRCRFELRGPHYLLPPGARRSAGRLPGHAGGAARVRGSAGCARCLGSPAARLGPRAGTSRHRAIFAFRWVLFVFRWVVFVYRWERRPDRRA
notes: also called p19^ARF mutant lacking amino acid residues 1-14; not shown: N-terminal HA tag of the HA-tagged ARF cDNA template
For B6, the binding result in [1] was “binds”.

B7: mouse p19^ARF Δ26-37 (HA-tagged deletion mutant) (other)
chain: MGRRFLVTVRIQRAGRPLQERVFLVCALAFVNMLLRLERILRRGPHRNPGPGDDDGQRSRSSSSAQLRCRFELRGPHYLLPPGARRSAGRLPGHAGGAARVRGSAGCARCLGSPAARLGPRAGTSRHRAIFAFRWVLFVFRWVVFVYRWERRPDRRA
notes: also called HA-ARF Δ26-37; not shown: N-terminal HA tag
Consider B7, for which the binding result in experiment [1] was “binds”.

B8: ARF N62 (mouse p19^ARF N-terminal 62 amino acids, HA-tagged) (other, not shown: small tags and cut ends)
chain: MGRRFLVTVRIQRAGRPLQERVFLVKFVRSRRPRTASCALAFVNMLLRLERILRRGPHRNPG
notes: Produced in Sf9 cells; also called HA-tagged N62; ARF N62 mutant
Regarding B8, the binding result in experiment [13] was “binds”.

B9: mouse ARF synthetic peptide 15-25 (peptide)
peptide: GRPLQERVFLV
notes: Coupled to Sepharose; also called ARF 15-25
In the case of B9, the binding result in experiment [14] and in experiment [15] was “no binding” each time.

B10: syn-ARF N64 (polyhistidine-tagged mouse ARF residues 1-64, made in bacteria) (other)
chain: MGRRFLVTVRIQRAGRPLQERVFLVKFVRSRRPRTASCALAFVNMLLRLERILRRGPHRNPGPG
notes: also called minigene-encoded N64 polypeptide; not shown: N-terminal polyhistidine tag of pET28a
With B10, the binding result in [13] is listed as “binds”.
